B1: glmS ribozyme (parent)
chain: AUAAAAGCGCCAGAACUACAGAAAUGUAGUUGACGAGGAGGAGGUUUAUCGAAUUUUCGGCGGAUGCCUCCAAA

Holding throughout (conditions): with glucosamine-6-phosphate
Data set [1] covers variants of B1. Briefly: self-cleavage kobs at 640 uM GlcN6P; higher = faster cleavage; RNA array. In a few lines:
(§1)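 E. coli RNA polymerase transcribed barcoded ribozyme variants in situ on sequenced MiSeq chips, which were tracked via a hybridised Cy3 probe at 37 °C. Tiles were imaged over ~14 h after glucosamine-6-phosphate (40 μM to 10 mM) in HEPES/KCl/Mg(OAc)2 buffer was flowed in. Normalised per-tile medians were fit to one- or two-exponential decays for kobs, and kcat and KM came from weighted Michaelis–Menten fits.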

Variants of B1 are the subject of data set [2]. Briefly: self-cleavage kobs at 2500 uM GlcN6P; higher = faster cleavage; RNA array. In a few lines: as §1
Data set [3] covers variants of B1. Briefly: self-cleavage kobs at 10000 uM GlcN6P; higher = faster cleavage; RNA array. The method, boiled down:
as §1

± gives the standard error. This sample holds only a part of the variants without activity.

34 variants from the supplement of paper PMC7125110 can be followed below.

With G13U A14U A48U, the “self-cleavage kobs at 640 uM GlcN6P” value in data set [1] is below 1e-05 s⁻¹. Further, the “self-cleavage kobs at 2500 uM GlcN6P” value in data set [2] is below 1e-05 s⁻¹. Consider A14G C34U A52C C68U C70U, for which, in data set [1], the “self-cleavage kobs at 640 uM GlcN6P” value is 8.57e-05 ± 4.2e-05 s⁻¹. Still for that read-out and setting: under U45A U46C U47G C70U stands 0.000175 ± 8.3e-05 s⁻¹; under G13U G43C A64G, below 1e-05 s⁻¹. Regarding G35A A36U G41A C58A, in data set [1], the “self-cleavage kobs at 640 uM GlcN6P” value was below 1e-05 s⁻¹. In data set [2], the “self-cleavage kobs at 2500 uM GlcN6P” value was below 1e-05 s⁻¹. For the variant U30A G41U G43U U54C, the “self-cleavage kobs at 640 uM GlcN6P” value in data set [1] is below 1e-05 s⁻¹. As for A33C A42C U47G U56G, in data set [1], the “self-cleavage kobs at 640 uM GlcN6P” value was below 1e-05 s⁻¹. The same measure, in the same setting: as for C16G A33U G37U C68G C71U, the figure is 8.54e-05 ± 3.1e-05 s⁻¹. On to G9C U45A C68A, for which the “self-cleavage kobs at 640 uM GlcN6P” value in data set [1] was below 1e-05 s⁻¹. Besides, the “self-cleavage kobs at 2500 uM GlcN6P” value in data set [2] is below 1e-05 s⁻¹.

Regarding G29A U30G A52G, the “self-cleavage kobs at 640 uM GlcN6P” value in data set [1] amounted to 7.23e-05 ± 1.9e-05 s⁻¹. Besides, the “self-cleavage kobs at 2500 uM GlcN6P” value in data set [2] stood at 0.000399 ± 9.4e-05 s⁻¹. For C8A C11U G13A C71U the same measures were below 1e-05 s⁻¹ and below 1e-05 s⁻¹. Turning to A42U C50G G62A C71U, in data set [1], the “self-cleavage kobs at 640 uM GlcN6P” value is below 1e-05 s⁻¹. Moreover, the “self-cleavage kobs at 2500 uM GlcN6P” value in data set [2] is below 1e-05 s⁻¹. Regarding C8G C61U C68U, in data set [1], the “self-cleavage kobs at 640 uM GlcN6P” value was below 1e-05 s⁻¹. Further, in data set [2], the “self-cleavage kobs at 2500 uM GlcN6P” value is below 1e-05 s⁻¹. In the case of G13U G29A A33U, in data set [1], the “self-cleavage kobs at 640 uM GlcN6P” value is below 1e-05 s⁻¹. On the same count and under the same terms, under U31A C34U A42C A48U G62U stands below 1e-05 s⁻¹. Regarding G35A U54C A64C, in data set [1], the “self-cleavage kobs at 640 uM GlcN6P” value is below 1e-05 s⁻¹. With G37A G41C C50U U65G, the “self-cleavage kobs at 640 uM GlcN6P” value in data set [1] is below 1e-05 s⁻¹. Also, the “self-cleavage kobs at 2500 uM GlcN6P” value in data set [2] was below 1e-05 s⁻¹.

With G43A G44A C68U, the “self-cleavage kobs at 640 uM GlcN6P” value in data set [1] stood at 0.000159 ± 6.2e-05 s⁻¹.

For A36C C70G, the “self-cleavage kobs at 640 uM GlcN6P” value in data set [1] is 0.000124 ± 2.1e-05 s⁻¹.

Consider G41A G44U C70A, for which the “self-cleavage kobs at 640 uM GlcN6P” value in data set [1] was below 1e-05 s⁻¹. Consider G37A G63U A64C, for which, in data set [1], the “self-cleavage kobs at 640 uM GlcN6P” value was below 1e-05 s⁻¹. For the same variant, the “self-cleavage kobs at 10000 uM GlcN6P” value in data set [3] is below 1e-05 s⁻¹.

Turning to G41A G51C G63A C67A, the “self-cleavage kobs at 640 uM GlcN6P” value in data set [1] was below 1e-05 s⁻¹. Same read-out and setting: as for A14G G29U G38C U56C, the figure is below 1e-05 s⁻¹.

Consider G29A G35U A42U, for which the “self-cleavage kobs at 640 uM GlcN6P” value in data set [1] is below 1e-05 s⁻¹. Further, the “self-cleavage kobs at 2500 uM GlcN6P” value in data set [2] is below 1e-05 s⁻¹. Moreover, the “self-cleavage kobs at 10000 uM GlcN6P” value in data set [3] is below 1e-05 s⁻¹. Turning to G41A C58U C70G, the “self-cleavage kobs at 640 uM GlcN6P” value in data set [1] was below 1e-05 s⁻¹. The “self-cleavage kobs at 2500 uM GlcN6P” value in data set [2] was below 1e-05 s⁻¹.

Take C50G U57A A64U: the “self-cleavage kobs at 640 uM GlcN6P” value in data set [1] was 0.000127 ± 5.8e-05 s⁻¹. U47C C50A U69G: the “self-cleavage kobs at 640 uM GlcN6P” value in data set [1] was 5.61e-05 ± 2.5e-05 s⁻¹. In data set [2], the “self-cleavage kobs at 2500 uM GlcN6P” value stood at 9.43e-05 ± 2.6e-05 s⁻¹.

Take G7U A39C U57G G63C C68U: the “self-cleavage kobs at 640 uM GlcN6P” value in data set [1] is below 1e-05 s⁻¹. In data set [2], the “self-cleavage kobs at 2500 uM GlcN6P” value was below 1e-05 s⁻¹. In the case of C58U C67U C68U C71U, in data set [1], the “self-cleavage kobs at 640 uM GlcN6P” value was determined as 0.000646 ± 0.00029 s⁻¹. With A14C A15G U69A, in data set [1], the “self-cleavage kobs at 640 uM GlcN6P” value is 9.09e-05 ± 2.4e-05 s⁻¹. For the same variant, the “self-cleavage kobs at 2500 uM GlcN6P” value in data set [2] was determined as 0.000115 ± 2.7e-05 s⁻¹. Consider U49G C61U C71A, for which, in data set [1], the “self-cleavage kobs at 640 uM GlcN6P” value was below 1e-05 s⁻¹. Moreover, in data set [2], the “self-cleavage kobs at 2500 uM GlcN6P” value was below 1e-05 s⁻¹. The “self-cleavage kobs at 10000 uM GlcN6P” value in data set [3] was below 1e-05 s⁻¹. Consider C8A C16A A39U G59U, for which the “self-cleavage kobs at 640 uM GlcN6P” value in data set [1] was below 1e-05 s⁻¹.

In the case of A6U G7C G13U A36C, the “self-cleavage kobs at 640 uM GlcN6P” value in data set [1] was below 1e-05 s⁻¹. Take A52G U55A C71A: the “self-cleavage kobs at 640 uM GlcN6P” value in data set [1] turned out to be 7.88e-05 ± 2.3e-05 s⁻¹. Moreover, the “self-cleavage kobs at 2500 uM GlcN6P” value in data set [2] was determined as 0.000169 ± 7.2e-05 s⁻¹.
